The values that follow come from paper PMC8733390, “Transcription Factor CitERF16 Is Involved in Citrus Fruit Sucrose Accumulation by Activating CitSWEET11d”.

This series concerns the target T1, CitERF16 (Citrus, UniProt V4VLW3 1-243).
T1 sequence: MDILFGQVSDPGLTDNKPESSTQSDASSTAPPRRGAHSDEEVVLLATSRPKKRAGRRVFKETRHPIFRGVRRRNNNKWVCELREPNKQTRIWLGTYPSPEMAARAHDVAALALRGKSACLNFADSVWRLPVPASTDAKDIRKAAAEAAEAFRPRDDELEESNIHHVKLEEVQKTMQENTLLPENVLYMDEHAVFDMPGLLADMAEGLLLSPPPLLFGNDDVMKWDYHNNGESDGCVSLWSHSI
Briefly: EMSA; unlabelled same-sequence probe reduced binding; LightShift Chemiluminescent EMSA kit (Thermo), per manufacturer; buffer, salt, pH and temperature not stated. To be noted: protein: recombinant; tags: His (pET-32a vector fusion); label: 3'-biotin; blunt. A general note: In EMSA bound probe runs differently from free probe, usually more slowly.

B1: CitSWEET11d promoter probe (dsDNA)
DNA 1: AAACGATGTCGGTACTCGGTCCGCATGCAATCATACAAAACAACAAGAAT
DNA 2: ATTCTTGTTGTTTTGTATGATTGCATGCGGACCGAGTACCGACATCGTTT
Regarding B1, the binding result was “binds”.
